The values below are quoted from earlier work in paper PMC8620506.

The data set deals with NS4B (Dengue virus) (UniProt P27909).

As a reminder, the Kd is a measure of binding affinity in units of concentration. For NS4A (from UniProt P27909), the dissociation constant (Kd) was 50 nM.
